Measured values: the Immune Epitope Database (IEDB)

How the values were obtained:
[1] = molecular target: HLA-B*53:01; test: IEDB peptide-MHC binding, purified MHC/competitive/radioactivity; filed as Kd, often an IC50 or EC50 that approximates it; ≥ and ≤ were set here for values at or beyond the usual limits of such assays
[2] = molecular target: HLA-B*51:01; test: as above
[3] = molecular target: HLA-B*35:01; test: as above
[4] = molecular target: HLA-A*23:01; test: as above; conditions: source organism: Dengue virus 4 Philippines/H241/1956
[5] = molecular target: HLA-B*44:02; test: as above; conditions: source organism: SARS coronavirus Tor2
[6] = molecular target: HLA-B*40:01; test: as above; conditions: source organism: SARS coronavirus Tor2
[7] = molecular target: HLA-B*45:01; test: as above; conditions: source organism: SARS coronavirus Tor2
[8] = molecular target: HLA-B*40:02; test: as above; conditions: source organism: SARS coronavirus Tor2
[9] = molecular target: HLA-B*18:01; test: as above; conditions: source organism: SARS coronavirus Tor2
[10] = molecular target: HLA-B*44:03; test: as above; conditions: source organism: SARS coronavirus Tor2
[11] = molecular target: HLA-B*15:01; test: IEDB peptide-MHC binding, purified MHC/competitive/fluorescence; filed as Kd, often an IC50 or EC50 that approximates it; ≥ and ≤ were set here for values at or beyond the usual limits of such assays; conditions: source organism: Bacillus anthracis str. A0488
[12] = molecular target: HLA-B*08:01; test: IEDB peptide-MHC binding, purified MHC/competitive/radioactivity; filed as Kd, often an IC50 or EC50 that approximates it; ≥ and ≤ were set here for values at or beyond the usual limits of such assays
[13] = molecular target: HLA-A*02:01; test: as above
[14] = molecular target: HLA-A*02:01; test: IEDB peptide-MHC binding, purified MHC/direct/fluorescence; filed as Kd, often an IC50 or EC50 that approximates it; ≥ and ≤ were set here for values at or beyond the usual limits of such assays
[15] = molecular target: HLA-B*15:01; test: as above
[16] = molecular target: HLA-A*69:01; test: as above; conditions: source organism: Salmonella enterica subsp. enterica serovar Typhimurium
[17] = molecular target: HLA-A*31:01; test: as above; conditions: source organism: Salmonella enterica subsp. enterica serovar Typhimurium
[18] = molecular target: HLA-A*32:01; test: IEDB peptide-MHC binding, purified MHC/competitive/radioactivity; filed as Kd, often an IC50 or EC50 that approximates it; ≥ and ≤ were set here for values at or beyond the usual limits of such assays; conditions: source organism: Dengue virus 4 Philippines/H241/1956
[19] = molecular target: HLA-B*27:05; test: IEDB peptide-MHC binding, purified MHC/direct/fluorescence; filed as Kd, often an IC50 or EC50 that approximates it; ≥ and ≤ were set here for values at or beyond the usual limits of such assays
[20] = molecular target: HLA-B*08:01; test: as above; conditions: source organism: Burkholderia mallei ATCC 23344
[21] = molecular target: HLA-A*02:03; test: IEDB peptide-MHC binding, purified MHC/competitive/radioactivity; filed as Kd, often an IC50 or EC50 that approximates it; ≥ and ≤ were set here for values at or beyond the usual limits of such assays; conditions: source organism: Vaccinia virus WR
[22] = molecular target: HLA-A*02:06; test: as above; conditions: source organism: Vaccinia virus WR
[23] = molecular target: HLA-A*26:01; test: IEDB peptide-MHC binding, purified MHC/competitive/fluorescence; filed as Kd, often an IC50 or EC50 that approximates it; ≥ and ≤ were set here for values at or beyond the usual limits of such assays; conditions: source organism: Influenza A virus (A/Wellington/22/2001(H3N2))
[24] = molecular target: HLA-B*58:01; test: IEDB peptide-MHC binding, purified MHC/direct/fluorescence; filed as Kd, often an IC50 or EC50 that approximates it; ≥ and ≤ were set here for values at or beyond the usual limits of such assays; conditions: source organism: Giardia lamblia ATCC 50803
[25] = molecular target: HLA-A*01:01; test: as above; conditions: source organism: Giardia lamblia ATCC 50803
[26] = molecular target: HLA-B*07:02; test: as above; conditions: source organism: Giardia lamblia ATCC 50803
[27] = molecular target: HLA-A*03:01; test: as above; conditions: source organism: Giardia lamblia ATCC 50803
[28] = source organism: Dengue virus 4 Philippines/H241/1956
[29] = source organism: Dengue virus 3 Martinique/1243/1999
[30] = source organism: Vaccinia virus WR
[31] = source organism: Dengue virus 1 Brazil/97-11/1997
[32] = source organism: Dengue virus 2 Jamaica/1409/1983
[33] = source organism: Salmonella enterica subsp. enterica serovar Typhimurium
[34] = source organism: Giardia lamblia ATCC 50803

LPESLETLM
Kd [1, 28]: 557 nM
Kd [2, 28]: 2450 nM
Kd [3, 28]: 470 nM

TPQPMELKY
Kd [1, 29]: 18.4 nM
Kd [3, 29]: 10.6 nM

MALKDFKEF
Kd [1, 28]: 139 nM
Kd [4]: 154 nM
Kd [3, 28]: 77 nM

EEGNLLDSYF
Kd [5]: 3.88 nM
Kd [6]: ≥ 41800 nM
Kd [7]: ≥ 20200 nM
Kd [8]: ≥ 70800 nM
Kd [9]: 10700 nM
Kd [10]: 11.7 nM

SPIINREGKV
Kd [2, 29]: ≥ 69600 nM

QSRKEFMSM
Kd [11]: 66.6 nM

MLLCHKPTL
Kd [12, 30]: 18.7 nM

SIHAHHQWM
Kd [12, 31]: 349 nM

MPSMKRFRRE
Kd [1, 32]: ≥ 20600 nM
Kd [2, 32]: ≥ 69600 nM
Kd [3, 32]: ≥ 30900 nM

IMKNHLRDI
Kd ([13]; source organism: Lassa virus Josiah): 12500 nM

GMFGGCFAA
Kd [14, 33]: 10 nM
Kd [15, 33]: 161 nM
Kd [16]: 2770 nM
Kd [17]: 1220 nM

MPLVMAWRTI
Kd [18]: 136 nM
Kd [1, 28]: 10.8 nM
Kd [2, 28]: 61.9 nM
Kd [3, 28]: 705 nM

LAVSGVYPL
Kd ([3]; source organism: Dengue virus 1 Singapore/S275/1990): 83.2 nM

MVQADSGCVV
Kd [2, 32]: ≥ 30500 nM

NPKFFKVYL
Kd [12, 30]: 190 nM

SLLMWITQCFL
Kd ([13]; source organism: Homo sapiens): ≥ 50000 nM

DPVVYDAKF
Kd [1, 31]: 648 nM
Kd [3, 31]: 959 nM

EAKRKLTEL
Kd [12, 30]: 2.45 nM

GMKAFTAAV
Kd [14, 33]: 281 nM
Kd [15, 33]: 59 nM
Kd [16]: 3560 nM
Kd [17]: 74.8 nM
Kd [19, 33]: 7260 nM

YLKWRWLHF
Kd [20]: 2 nM

FLNISWFYI
Kd [13, 30]: 0.0142 nM
Kd [21]: 1.1 nM
Kd [22]: 0.667 nM

LPEDIEQMAN
Kd [1, 29]: 2100 nM
Kd [2, 29]: ≥ 69600 nM
Kd [3, 29]: 883 nM

ETIVLLRAF
Kd [23]: 27.6 nM

MPTYKHLIM
Kd [12, 30]: 0.13 nM

WALCESITL
Kd [3, 31]: 75.7 nM

ATSGYRIAY
Kd [24]: 1650 nM
Kd [14, 34]: ≥ 20000 nM
Kd [25]: 68.7 nM
Kd [15, 34]: 45 nM
Kd [26]: ≥ 20000 nM
Kd [19, 34]: ≥ 20000 nM
Kd [27]: ≥ 20000 nM
